Target: T1, PsbS modified to contain a strep-tag at the C terminus (Arabidopsis thaliana), Q9XF91
T1 chain: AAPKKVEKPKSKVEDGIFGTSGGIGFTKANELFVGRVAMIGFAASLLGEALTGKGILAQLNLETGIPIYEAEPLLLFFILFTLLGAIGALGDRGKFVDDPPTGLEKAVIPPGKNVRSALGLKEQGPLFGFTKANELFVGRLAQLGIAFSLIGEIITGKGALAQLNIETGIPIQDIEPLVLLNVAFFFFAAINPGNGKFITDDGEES
Test: SDS-PAGE and immunoblot; PsbS in detergent and in LHCII + PsbS proteoliposomes (thylakoid lipids); monomeric (M) and dimeric (D) bands detected with an anti-PsbS antibody
Conditions: remark: other sources report otherwise

B1: PsbS modified to contain a strep-tag at the C terminus, Q9XF91 60-265 (natural protein)
chain: AAPKKVEKPKSKVEDGIFGTSGGIGFTKANELFVGRVAMIGFAASLLGEALTGKGILAQLNLETGIPIYEAEPLLLFFILFTLLGAIGALGDRGKFVDDPPTGLEKAVIPPGKNVRSALGLKEQGPLFGFTKANELFVGRLAQLGIAFSLIGEIITGKGALAQLNIETGIPIQDIEPLVLLNVAFFFFAAINPGNGKFITDDGEES
stoichiometry N: 2
